± gives the standard deviation of the averaged measurements.
What follows are sequences tested on Saccharomyces cerevisiae (assay: protein stability index of tFT-peptide fusion (C-terminal peptide) (PSI (0-1 scale)); higher = more stable (slower turnover)). Conditions: genetic background: cdc34-1; temperature: 37 C.
Method: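 MPS profiling in S. cerevisiae of the tFT-X12 degron library: putative degron peptides plus stable controls, 12 aa, fused to the C-terminus of a sfGFP-mCherry timer. Cells are FACS-sorted into 8 mCherry/sfGFP bins and deep-sequenced. PSI runs from 0 (unstable) to 1 (stable). Backgrounds are wild type, das1Δ and doa10Δ at 30 °C, and wild type, das1Δ, cdc34-1 and cdc53-1 at 37 °C; 2-3 technical replicates each.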
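Further: PSI is a weighted mean of sequencing reads over stability bins, variants kept only with over 10 reads, mCherry proximal and sfGFP distal, peptide attached via GGGS linker.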

In order of rising protein stability index:
1. YPRLVGGCWFRL  0.318 ± 0.03
2. YSVFCPLFFIIY  0.3507 ± 0.0014
3. YVLWFVCGVGFV  0.352 ± 0.015
4. YVFSPWSCWASV  0.366 ± 0.019
5. YYLVKCVYLRTT  0.413 ± 0.013
6. YSCFFFLFSFFF  0.498 ± 0.023
7. YTPPISRLLIFT  0.528 ± 0.031
8. YVWPKRRGLRVA  0.611 ± 0.036

Same assay, conditions: genetic background: cdc53-1; temperature: 37 C

In order of falling protein stability index:
1. WWVAGLGSSGGG  0.77959 ± 0.00011
2. YVWPKRRGLRVA  0.674 ± 0.023
3. YPLISVSLPCPS  0.6067 ± 0.0052
4. WVWFGCVLGYRV  0.561 ± 0.025
5. YSCFFFLFSFFF  0.56 ± 0.016
6. YNTVALRITLIT  0.538 ± 0.013
7. YTPPISRLLIFT  0.532 ± 0.0094
8. YVLWFVCGVGFV  0.462 ± 0.031
9. YYLVKCVYLRTT  0.4509 ± 0.0038
10. YFVLVRLICFLL  0.438 ± 0.0066
11. WWVVVRGGWCLC  0.416 ± 0.014
12. YVFSPWSCWASV  0.396 ± 0.0044
13. YSVFCPLFFIIY  0.323 ± 0.006
14. YPRLVGGCWFRL  0.258 ± 0.037
15. WVGVVLLSVVGG  0.249 ± 0.008
16. WVFVETVFLVCG  0.226 ± 0.04
17. WVWCVCVVVWCG  0.191 ± 0.051

Same assay, conditions: genetic background: das1 deletion; temperature: 30 C

In order of falling protein stability index:
1. WWVAGLGSSGGG  0.663 ± 0.026
2. YVWPKRRGLRVA  0.467 ± 0.03
3. YSCFFFLFSFFF  0.429 ± 0.027
4. WVWFGCVLGYRV  0.426 ± 0.026
5. YVFSPWSCWASV  0.416 ± 0.0081
6. YPLISVSLPCPS  0.396 ± 0.042
7. YTPPISRLLIFT  0.39 ± 0.035
8. YPRLVGGCWFRL  0.371 ± 0.016
9. YYLVKCVYLRTT  0.371 ± 0.029
10. YNTVALRITLIT  0.329 ± 0.05
11. YSVFCPLFFIIY  0.298 ± 0.04
12. YVLWFVCGVGFV  0.29 ± 0.045
13. YFVLVRLICFLL  0.289 ± 0.035
14. WWVVVRGGWCLC  0.286 ± 0.032
15. WVGVVLLSVVGG  0.2 ± 0.032
16. WVFVETVFLVCG  0.176 ± 0.038
17. WVWCVCVVVWCG  0.153 ± 0.026

Same assay, conditions: genetic background: das1 deletion; temperature: 37 C

In order of rising protein stability index:
1. WVWCVCVVVWCG  0.256 ± 0.013
2. WVFVETVFLVCG  0.3159 ± 0.0011
3. WVGVVLLSVVGG  0.344 ± 0.0057
4. YVFSPWSCWASV  0.361 ± 0.0059
5. YSVFCPLFFIIY  0.458 ± 0.013
6. YFVLVRLICFLL  0.472 ± 0.01
7. YVLWFVCGVGFV  0.4768 ± 0.0011
8. WWVVVRGGWCLC  0.495 ± 0.009
9. YNTVALRITLIT  0.5018 ± 0.0042
10. YYLVKCVYLRTT  0.504 ± 0.0098
11. YPRLVGGCWFRL  0.547 ± 0.032
12. YSCFFFLFSFFF  0.5552 ± 0.0024
13. YTPPISRLLIFT  0.564 ± 0.016
14. WVWFGCVLGYRV  0.566 ± 0.021
15. YPLISVSLPCPS  0.585 ± 0.015
16. YVWPKRRGLRVA  0.679 ± 0.009
17. WWVAGLGSSGGG  0.788 ± 0.0094

Same assay, conditions: genetic background: doa10 deletion; temperature: 30 C

In order of rising protein stability index:
1. WVWCVCVVVWCG  0.135 ± 0.0037
2. WVFVETVFLVCG  0.142 ± 0.012
3. WVGVVLLSVVGG  0.164 ± 0.008
4. WVWFGCVLGYRV  0.442 ± 0.039

Source: the supplement of paper PMC10724198
